Test results from US20120196760A1, “METHODS AND COMPOSITIONS FOR IDENTIFYING MODULATORS OF ANTI-TETHERIN ACTIVITY TO INHIBIT P[…] VIRUSES” (CHILDRENS HOSPITAL LOS ANGELES, priority 2008, published 2012).

Tested on: HIV-1 VLPs
Assay: HIV-1 VLP release from cells expressing Tetherin constructs (Western blot, % VLP release)
Assay type: cell-based
Details: Tetherin expressed alone, no anti-Tetherin; FIG. 9B

B1: full-length human Tetherin: human cellular protein that tethers newly budded HIV particles at the cell surface and restricts virus release (protein)
chain: MASTSYDYCRVPMEDGDKRCKLLLGIGILVLLIIVILGVPLIIFTIKANSEACRDGLRAVMECRNVTHLLQQELTEAQKGFQDVEAQAATCNHTVMALMASLDAEKAQGQKKVEELEGEITTLNHKLQDASAEVERLRRENQVLSVRIADKKYYPSSQDSS
With B1 as the molecule, how does the “reduction of release of Virus-Like Particles (VLPs)” value read?
Its value is “about 95%”.
